# Results as given in IntAct's records for PubMed 32296183.
# B1: Catenin alpha-3 (Homo sapiens), Q9UI47-2 (parent)
# chain: MSAETPITLNIDPQDLQVQTFTVEKLLEPLIIQVTTLVNCPQNPSSRKKGRSKRASVLLASVEEATWNLLDKGEKIAQEATVLKDELTASLEEVRKESEALKVSAERFTDDPCFLPKREAVVQAARALLAAVTRLLILADMIDVMCLLQHVSAFQRTFESLKNVANKSDLQKTYQKLGKELENLDYLAFKRQQDLKSPNQRDEIAGARASLKENSPLLHSICSACLEHSDVASLKASKDTVCEEIQNALNVISNASQGIQNMTTPPEPQAATLGSALDELENLIVLNPLTVTEEEIRPSLEKRLEAIISGAALLADSSCTRDLHRERIIAECNAIRQALQDLLSEYMNNAGKKERSNTLNIALDNMCKKTRDLRRQLRKAIIDHVSDSFLDTTVPLLVLIEAAKNGREKEIKEYAAIFHEHTSRLVEVANLACSMSTNEDGIKIVKIAANHLETLCPQIINAALALAARPKSQAVKNTMEMYKRTWENHIHVLTEAVDDITSIDDFLAVSGMFLFF
# partner: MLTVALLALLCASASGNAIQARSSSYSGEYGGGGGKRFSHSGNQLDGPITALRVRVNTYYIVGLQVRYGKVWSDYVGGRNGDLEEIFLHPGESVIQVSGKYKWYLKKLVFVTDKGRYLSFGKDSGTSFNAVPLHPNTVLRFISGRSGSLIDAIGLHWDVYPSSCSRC
# B2: Dolichol kinase (Homo sapiens), Q9UPQ8 (parent)
# chain: MTRECPSPAPGPGAPLSGSVLAEAAVVFAVVLSIHATVWDRYSWCAVALAVQAFYVQYKWDRLLQQGSAVFQFRMSANSGLLPASMVMPLLGLVMKERCQTAGNPFFERFGIVVAATGMAVALFSSVLALGITRPVPTNTCVILGLAGGVIIYIMKHSLSVGEVIEVLEVLLIFVYLNMILLYLLPRCFTPGEALLVLGGISFVLNQLIKRSLTLVESQGDPVDFFLLVVVVGMVLMGIFFSTLFVFMDSGTWASSIFFHLMTCVLSLGVVLPWLHRLIRRNPLLWLLQFLFQTDTRIYLLAYWSLLATLACLVVLYQNAKRSSSESKKHQAPTIARKYFHLIVVATYIPGIIFDRPLLYVAATVCLAVFIFLEYVRYFRIKPLGHTLRSFLSLFLDERDSGPLILTHIYLLLGMSLPIWLIPRPCTQKGSLGGARALVPYAGVLAVGVGDTVASIFGSTMGEIRWPGTKKTFEGTMTSIFAQIISVALILIFDSGVDLNYSYAWILGSISTVSLLEAYTTQIDNLLLPLYLLILLMA
# partner: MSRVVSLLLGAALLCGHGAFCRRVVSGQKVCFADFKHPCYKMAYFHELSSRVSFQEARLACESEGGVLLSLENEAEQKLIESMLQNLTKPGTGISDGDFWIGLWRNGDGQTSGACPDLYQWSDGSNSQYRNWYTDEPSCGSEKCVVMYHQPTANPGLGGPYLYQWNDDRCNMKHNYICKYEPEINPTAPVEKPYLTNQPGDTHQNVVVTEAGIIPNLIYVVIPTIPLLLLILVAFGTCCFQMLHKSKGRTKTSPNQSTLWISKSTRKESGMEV
# B3: Golgi SNAP receptor complex member 2 (Homo sapiens), O14653 (parent)
# chain: MDPLFQQTHKQVHEIQSCMGRLETADKQSVHIVENEIQASIDQIFSRLERLEILSSKEPPNKRQNARLRVDQLKYDVQHLQTALRNFQHRRHAREQQERQREELLSRTFTTNDSDTTIPMDESLQFNSSLQKVHNGMDDLILDGHNILDGLRTQRLTLKGTQKKILDIANMLGLSNTVMRLIEKRAFQDKYFMIGGMLLTCVVMFLVVQYLT
# partner: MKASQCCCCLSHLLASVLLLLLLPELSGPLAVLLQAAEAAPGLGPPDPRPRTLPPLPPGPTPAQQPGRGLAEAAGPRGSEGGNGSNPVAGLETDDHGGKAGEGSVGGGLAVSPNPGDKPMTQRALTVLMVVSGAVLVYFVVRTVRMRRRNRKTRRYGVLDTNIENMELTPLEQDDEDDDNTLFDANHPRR
# B4: Catenin alpha-3 (Homo sapiens), Q9UI47-2 (parent)
# chain: B1 chain
# partner: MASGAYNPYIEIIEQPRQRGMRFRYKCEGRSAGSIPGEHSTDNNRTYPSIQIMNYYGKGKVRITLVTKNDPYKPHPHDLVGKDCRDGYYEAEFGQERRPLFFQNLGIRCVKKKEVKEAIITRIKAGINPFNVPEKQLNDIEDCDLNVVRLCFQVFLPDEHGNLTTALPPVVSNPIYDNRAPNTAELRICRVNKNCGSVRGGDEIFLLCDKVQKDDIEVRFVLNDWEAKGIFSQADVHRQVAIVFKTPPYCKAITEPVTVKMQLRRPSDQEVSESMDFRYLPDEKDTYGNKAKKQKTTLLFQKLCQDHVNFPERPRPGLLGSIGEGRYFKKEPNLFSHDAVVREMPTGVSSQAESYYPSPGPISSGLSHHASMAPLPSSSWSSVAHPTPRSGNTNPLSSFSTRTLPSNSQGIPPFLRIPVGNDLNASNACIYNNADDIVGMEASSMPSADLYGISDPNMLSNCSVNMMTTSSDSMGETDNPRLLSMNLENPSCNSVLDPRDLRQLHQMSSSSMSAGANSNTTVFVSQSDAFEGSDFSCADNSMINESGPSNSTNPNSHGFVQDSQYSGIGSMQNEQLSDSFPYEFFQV
# B5: Ceroid-lipofuscinosis neuronal protein 6 (Homo sapiens), Q9NWW5 (parent)
# chain: MEATRRRQHLGATGGPGAQLGASFLQARHGSVSADEAARTAPFHLDLWFYFTLQNWVLDFGRPIAMLVFPLEWFPLNKPSVGDYFHMAYNVITPFLLLKLIERSPRTLPRSITYVSIIIFIMGASIHLVGDSVNHRLLFSGYQHHLSVRENPIIKNLKPETLIDSFELLYYYDEYLGHCMWYIPFFLILFMYFSGCFTASKAESLIPGPALLLVAPSGLYYWYLVTEGQIFILFIFTFFAMLALVLHQKRKRLFLDSNGLFLFSSFALTLLLVALWVAWLWNDPVLRKKYPGVIYVPEPWAFYTLHVSSRH
# partner: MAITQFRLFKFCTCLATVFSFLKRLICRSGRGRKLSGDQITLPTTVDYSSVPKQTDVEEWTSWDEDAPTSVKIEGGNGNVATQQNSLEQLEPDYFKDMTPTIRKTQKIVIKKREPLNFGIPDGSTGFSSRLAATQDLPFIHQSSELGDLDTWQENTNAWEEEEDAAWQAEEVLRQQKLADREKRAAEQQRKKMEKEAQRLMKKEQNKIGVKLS
# B6: Catenin alpha-3 (Homo sapiens), Q9UI47-2 (parent)
# chain: B1 chain
# partner: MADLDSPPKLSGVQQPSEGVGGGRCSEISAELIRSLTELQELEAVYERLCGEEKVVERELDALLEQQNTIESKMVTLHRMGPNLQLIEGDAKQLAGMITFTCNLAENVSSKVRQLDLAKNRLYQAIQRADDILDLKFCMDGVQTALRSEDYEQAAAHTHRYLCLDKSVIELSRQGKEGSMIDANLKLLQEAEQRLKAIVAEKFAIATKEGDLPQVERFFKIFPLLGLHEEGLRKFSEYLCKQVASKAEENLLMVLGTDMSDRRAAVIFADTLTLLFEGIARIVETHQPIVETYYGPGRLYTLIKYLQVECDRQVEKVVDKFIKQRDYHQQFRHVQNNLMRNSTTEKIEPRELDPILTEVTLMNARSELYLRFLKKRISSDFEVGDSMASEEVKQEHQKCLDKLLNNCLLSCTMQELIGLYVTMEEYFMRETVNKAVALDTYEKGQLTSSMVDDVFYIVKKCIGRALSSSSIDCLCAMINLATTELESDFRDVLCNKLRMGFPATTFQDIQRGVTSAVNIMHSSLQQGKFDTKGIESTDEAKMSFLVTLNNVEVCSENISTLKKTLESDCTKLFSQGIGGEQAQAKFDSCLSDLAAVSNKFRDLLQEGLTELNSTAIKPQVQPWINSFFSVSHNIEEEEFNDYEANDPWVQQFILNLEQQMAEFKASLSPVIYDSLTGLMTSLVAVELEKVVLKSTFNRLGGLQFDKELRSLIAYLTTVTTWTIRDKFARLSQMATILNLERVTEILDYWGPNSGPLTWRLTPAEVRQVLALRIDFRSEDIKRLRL
# B7: Golgi SNAP receptor complex member 2 (Homo sapiens), O14653 (parent)
# chain: B3 chain
# partner: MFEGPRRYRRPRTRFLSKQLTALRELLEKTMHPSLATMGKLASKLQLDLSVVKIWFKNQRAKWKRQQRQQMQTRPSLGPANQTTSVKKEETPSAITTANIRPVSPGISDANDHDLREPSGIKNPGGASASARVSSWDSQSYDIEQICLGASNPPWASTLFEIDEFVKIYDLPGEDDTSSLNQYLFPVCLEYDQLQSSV
# B8: Golgi SNAP receptor complex member 2 (Homo sapiens), O14653 (parent)
# chain: B3 chain
# partner: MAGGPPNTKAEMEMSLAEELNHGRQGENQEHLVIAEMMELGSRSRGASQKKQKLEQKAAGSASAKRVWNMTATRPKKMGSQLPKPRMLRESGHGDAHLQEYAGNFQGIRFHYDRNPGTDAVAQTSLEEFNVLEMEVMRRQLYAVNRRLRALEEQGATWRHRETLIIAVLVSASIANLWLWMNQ
# B9: Dolichol kinase (Homo sapiens), Q9UPQ8 (parent)
# chain: B2 chain
# partner: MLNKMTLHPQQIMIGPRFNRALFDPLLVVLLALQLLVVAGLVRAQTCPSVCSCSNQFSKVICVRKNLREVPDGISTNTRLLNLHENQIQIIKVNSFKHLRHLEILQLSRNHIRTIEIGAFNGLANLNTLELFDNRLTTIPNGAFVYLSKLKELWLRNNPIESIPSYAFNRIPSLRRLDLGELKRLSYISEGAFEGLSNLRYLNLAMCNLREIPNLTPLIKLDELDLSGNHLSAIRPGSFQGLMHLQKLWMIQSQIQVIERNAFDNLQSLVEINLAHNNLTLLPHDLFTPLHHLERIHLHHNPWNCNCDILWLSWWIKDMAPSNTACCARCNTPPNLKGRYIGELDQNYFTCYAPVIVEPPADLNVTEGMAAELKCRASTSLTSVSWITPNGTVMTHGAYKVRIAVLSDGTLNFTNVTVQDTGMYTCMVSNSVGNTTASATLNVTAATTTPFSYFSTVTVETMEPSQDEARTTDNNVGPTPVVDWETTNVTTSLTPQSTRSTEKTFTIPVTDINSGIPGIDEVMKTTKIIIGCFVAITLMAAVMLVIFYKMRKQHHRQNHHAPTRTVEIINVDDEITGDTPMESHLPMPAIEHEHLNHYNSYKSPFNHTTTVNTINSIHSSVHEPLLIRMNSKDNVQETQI
# Variants of: B1
# Conditions: with zg16_human ZG16, O60844
row,Variant,effect of a mutation on the interaction
1,V94D,disrupting interaction strength

# Variants of: B2
# Conditions: with chodl_human CHODL
row,Variant,effect of a mutation on the interaction
1,Y441S,disrupting interaction strength

# Variants of: B3
# Conditions: with FAM174A
row,Variant,effect of a mutation on the interaction
1,G144W,with no effect

# Variants of: B4
# Conditions: with REL
row,Variant,effect of a mutation on the interaction
1,V94D,with no effect

# Variants of: B5
# Conditions: with rcas1_human EBAG9, O00559
row,Variant,effect of a mutation on the interaction
1,R6T,with no effect
2,G123D,with no effect
3,L47F,with no effect

# Variants of: B6
# Conditions: with cog4_human COG4, Q9H9E3
row,Variant,effect of a mutation on the interaction
1,V94D,with no effect

# Variants of: B7
# Conditions: with leutx_human LEUTX
row,Variant,effect of a mutation on the interaction
1,G144W,with no effect

# Variants of: B8
# Conditions: with fate1_human FATE1, Q969F0
row,Variant,effect of a mutation on the interaction
1,G144W,with no effect

# Variants of: B9
# Conditions: with lrc4c_human LRRC4C
row,Variant,effect of a mutation on the interaction
1,Y441S,disrupting interaction strength
